Source: a protein production outcome set (Wang et al. 2014)

Assay: label from the status in PepcDB records
For “MFPFENQRLPISALIHKKNHSRLQPHPLFEEQPMKILLIGANGTIGSAVARELEQRHEVVRIGRTSGDFQVDISDSQSIRALFEKTGRFDALVCAAGNVTFAPLGEMTAEHFSLGLEDKLMGQVNLLLIGREYANDGASFTFTTGVLSHDPIRSGASAALVNGAIDSFVRAAAIELPRGLRVNSISPNVLLEAMGSYAPYFRGFKPVPAADVALAYAKSVEGLQTGQTYRVG”, the protein production was “failed”.
With “MFPQRSSELYRTPVTHQPPPALELAGNLEYPNLNIADLNARLENLSPRLHDCWDSIAINDHNHLALATNRREGRQWWGMLFGYGRDQMHHMSVDSANFKLQAEHTVNIVRYAEDDFLLVALGDTRLQAWSTYSKVRDSQSPYCLFLVGESSAHPTPISQLSVFKADPRTAVSGSADSTLNVWDLSGADMVSTYRSRSSHTDKLTGLATPAASVDKFVTCDRGGCARLWDVRAAAPSSTCLYADASHVLSFTSAAWAAASELQGDNHIYLGDYDGKVHTLDIRVPRKLAETREYFDKGHVAQLLINGPHLAAMSNLPASVKVANVQAGHEFIYTHQDTHSRLTDAVWTDDSTLITIGHGRKMVTHAIK” the protein production was “failed”.
In the case of “MFPSRRKAAQLPWEDGRSGLLSGGLPRKCSVFHLFVACLSLGFFSLLWLQLSCSGDVARAVRGQGQETSGPPRACPPEPPPEHWEEDASWGPHRLAVLVPFRERFEELLVFVPHMRRFLSRKKIRHHIYVLNQVDHFRFNRAALINVGFLESSNSTDYIAMHDVDLLPLNEELDYGFPEAGPFHVASPELHPLYHYKTYVGGILLLSKQHYRLCNGMSNRFWGWGREDDEFYRRIKGAGLQLFRPSGITTGYKTFRHLHDPAWRKRDQKRIAAQKQEQFKVDREGGLNTVKYHVASRTALSVGGAPCTVLNIMLDCDKTATPWCTFS”, the protein production is reported as “failed”.
With “MFQIIGIVLLFAMVFGSYIMAGGKMDVIIHAAPHELMAIGGAGVAAFLIGNSVTVIKATLGGFGTIFKGPKWKAQDYRDLLSLLFLLTKTMKSKGVIALEAHIEKPHESTIFSRYPKIAHDHFAVDFICDTLRMMTMNLEDPHQVEDAMEKQLEKHHHEAHGAAHALTQLSDGLPALGIVAAVLGVIKTMGSITEPPAVLGTMIGGALVGTFMGVFMAYGLVGPMATRLGGVLDEDHNFYKIIQAVLVAHLHGNAAQISVEIGRGNVPSAYQPSFAELEEALSQMPNE” the protein production was “failed”.
With “MFQKIAKECLAGFTVAIVALPLAIAFGIAATGTSEGALVGLYGAIFAGLFAALFGGTPGQVTGPTGPITVIATGVIATHGLEASFIVFMMAGLFQILFGVCKLGSYVRYIPYPVVSGFMNGIALIIILGEMKHVQNSFLLVVLTIIVMIVSGKWIKAIPSSLVALVGVTAMLPLFSSALEGLTVKLPVIGNLSLNKVIEKIGTIPEAMPTLHIPSLSGTGIAELILPALSIALLGSIDSLLTSVVMDNVTGTRHKSNKELVGQGIGNVMSGLFGGLAGAGATVRSIVNIRSGGKTALSASMHSVILFIFIMGLGSVVQYIPLAVLSGILILTGIGMFDWESMKKMHVAPKGDVVVMLVTMIVTVKFDLMIAVAFGIILAFIIYMVKCKERKASIVKEKEAIYKIKGPLSFLTVDRVFYALQDVKSPVVLRMKDTRYMDVSGAMALLNFIEQSGKSGLSVTLEQVPAHIEKILVTMASSEQKDKLLFTEADVMQGNALV” the protein production was “failed”.
With “MFQRKTLQRRNLKGLNLNLHPDVGNNGQLQEKTETHQGQSRIEGHVMSNINAIQNNSNLFLRRGIKKKLTLDAFGDDQAISKPNTVVIQQPQNEPVLVLSSLSQSPCVSSSSSLSTPCIIDAYSNNFGLSPSSTNSTPSTIQGLSNIATPVENEHSISLPPLEESLSPAAADLKDTLSGTSNGNYIQLQDLVQLGKIGAGNSGTVVKALHVPDSKIVAKKTIPVEQNNSTIINQLVRELSIVKNVKPHENIITFYGAYYNQHINNEIIILMEYSDCGSLDKILSVYKRFVQRGTVSSKKTWFNELTISKIAYGVLNGLDHLYRQYKIIHRDIKPSNVLINSKGQIKLCDFGVSKKLINSIADTFVGTSTYMSPERIQGNVYSIKGDVWSLGLMIIELVTGEFPLGGHNDTPDGILDLLQRIVNEPSPRLPKDRIYSKEMTDFVNRCCIKNERERSSIHELLHHDLIMKYVSPSKDDKFRHWCRKIKSKIKEDKRIKREALDRAKLEKKQSERSTH” the protein production was “failed”.
With “MFRDFRMSLLVAVICLGLAAWWGHTSSMGIWQALWLCLVLSVLEVSLSFDNAVVNAGVLKHMNAFWQKLFLTVGILIAVFGMRLVFPIVIVSVATGMGLVPVMQMALKEPDRYSQVLTDNYPSIAAFGGMFLLLVFLNFLFDQERKLHWLGPVERLVGKLGKADAMSVIVAVSVLLGTKLFLPDGIFQSVLFAGLGGILLYLLVGSVDALFEAEESEDGSMGPAKRSGIAAFLYLEVLDASFSFDGVIGAFAITRDVVIIMLGLAIGAMFVRSMTVYLVHKGTLDEFVFLEHGAHYAIGVLAIIMLVGTVYHVPEVLTGLIGVAFIAASVWSSIRYRKRHHIGPTEI” the protein production was “failed”.
For “MFRIKQLAWAMGCVSLMSGCTLYPWYQNKAGQAVNVKPVMEVRHAIRSADALYQLGRYYQAKVDYAEAIAAYEKALEADPRHVEAHNGLGVAHCLLDRHELALQYFRKAIGMAPLAAHLHNNLGYAHLVHGQEAEAVSAFERALLLEPHNQRARRHLAAVYKKAGLHDKAAALTVAPSGAPVGATKAPPTAPIPTPAPGTPAGTPAGIPSAAISAISPPMAAAPGEKQKLSCSAAARLLQVTPGVFEFRMAETEAMTAMPSGKIIGRTAPPQDSGKFSGQDIRIEVSNGNGLPGMARQVSDFLQQNGFARARLTDRQPYQQALTEIHYRPGHSGVAEEISRLMPGGSGVPTVESYNLRRDIHVRVMLGKDAVRQVAHLESPQKVQIAQGTAGAVE”, the protein production was “failed”.
In the case of “MFRPQDDFTYLMPVHFGGGKFDPETLVTQKATALSLSFETERDLLENYIPEGFELLAPEVQVAFNKFTEINWLHGGQYNLINVAAPVRFHGKKDELDGAYTLVVWENKTAPILGGREQTGIPKIYADIEDLHIVRPHFATTVSYEGNTFLNMDFEATGSITGRDLDALKSQFLTMNTLGWRYIPKVGAPGAELSQFVLYPQGMEVETAEVGKGSLKWTELTPMQSPAQYYIVNSLASLPIKRVTQAVLVEGRAILRAMGARVIE”, the protein production is reported as “not failed”.
In the case of “MFRQLKKNLVATLIAAMTIGQVAPAFADSADTLPDMGTSAGSTLSIGQEMQMGDYYVRQLRGSAPLINDPLLTQYINSLGMRLVSHANSVKTPFHFFLINNDEINAFAFFGGNVVLHSALFRYSDNESQLASVMAHEISHVTQRHLARAMEDQQRSAPLTWVGALGSILLAMASPQAGMAALTGTLAGTRQGMISFTQQNEQEADRIGIQVLQRSGFDPQAMPTFLEKLLDQARYSSRPPEILLTHPLPESRLADARNRANQMRPMVVQSSEDFYLAKARTLGMYNSGRNQLTSDLLDEWAKGNVRQQRAAQYGRALQAMEANKYDEARKTLQPLLAAEPGNAWYLDLATDIDLGQNKANEAINRLKNARDLRTNPVLQLNLANAYLQGGQPQEAANILNRYTFNNKDDSNGWDLLAQAEAALNNRDQELAARAEGYALAGRLDQAISLLSSASSQVKLGSLQQARYDARIDQLRQLQERFKPYTKMLEHHHHHH”, the protein production is reported as “not failed”.
With “MFSFLEKNPFFFTLAFIFVFAIAGLVEILPNFFKSARPIEGLRPYTVLETAGRQIYIQEGCYHCHSQLIRPFQAEVDRYGAYSLSGEYAYDRPFLWGSKRIGPDLHRVGDYRTTDWHEKHMFDPKSVVPHSIMPAYKHLFTKKSDFDTAYAEALTQKKVFGVPYDTENGVKLGSVEEAKKAYLEEAKKITADMKDKRVLEAIERGEVLEIVALIAYLNSLGNSRINANQNAK” the protein production was “failed”.
In the case of “MFSFVQMTGCLLPLTALTPLSHCTRPRNALALLQSSWKGGSLAISLVRNAVAAVLAAALSVPVSADVGAGSYLAARQAVFANDFSSAADYFARALAIDPQNPALMENMVLSQLALGRLEQAYPVAQLMQEAGLQSQVANIAIVVHLLSEERYQEVLDRDPEMRGVGKLVDGLVAGWAEMGLGSVARALAQFDKVADEAGLRGFANYHKAMALASVGDFEGAEALFAADDGALTTISRRAALARAEILSQLDRNDQALEMLADVFSGGFDPALSDIADRLVAGETLPFSLVRSVRDGLAEVFFTIGAALNGEASDDFTLVYIRSAVHLRPDHIDALLMTAGLLESLGQYDLAVATYKQIPNDSPDYHAAELGRAEALRRSAKPDAAIEVLEKLAKDYPSQPQAFVALGDLQRQQEAYDRAATAYDKALQLTDPGAPNMWFLHYARGICHERLGNWPGAEADFRAALELNPDQPQVLNYLGYSLVEKQEKLDEALDLIERAVAARPDSGYIVDSLGWVLFRLGRYDEAVGHMERAVELMPVDPVVNDHLGDVLWAVGRVREAEFQWRRALSFIKADDTDGEADPERIRRKLEIGLDRVLAEEGVPPLKVANGD”, the protein production is reported as “failed”.
